Measured values taken from publication PMC9335216 (Proceedings of the National Academy of Sciences of the …, 2022).

B1: RclA (Escherichia coli K-12) (protein)
chain: MNKYQAVIIGFGKAGKTLAVTLAKAGWRVALIEQSNAMYGGTCINIGCIPTKTLVHDAQQHTDFVRAIQRKNEVVNFLRNKNFHNLADMPNIDVIDGQAEFINNHSLRVHRPEGNLEIHGEKIFINTGAQTVVPPIPGITTTPGVYDSTGLLNLKELPGHLGILGGGYIGVEFASMFANFGSKVTILEAASLFLPREDRDIADNIATILRDQGVDIILNAHVERISHHENQVQVHSEHAQLAVDALLIASGRQPATASLHPENAGIAVNERGAIVVDKRLHTTADNIWAMGDVTGGLQFTYISLDDYRIVRDELLGEGKRSTDDRKNVPYSVFMTPPLSRVGMTEEQARESGADIQVVTLPVAAIPRARVMNDTRGVLKAIVDNKTQRMLGASLLCVDSHEMINIVKMVMDAGLPYSILRDQIFTHPSMSESLNDLFSLVK

Key:
[1] = test system: glutathione reductase (GR); experiment: stopped-flow, NAD; type: biochemical; settings: read-out: apparent KM; 180 µM NAD(P)H, 10 nM enzyme, 50 to 250 µM HOSCN, 100 mM sodium phosphate pH 7.4, aerobic
purified protein = substrate: O=S(=O)(O)CCNCl; experiment: purified protein; settings: 100 µM NADH, 10 µM enzyme, 20 mM HEPES, 100 mM NaCl pH 7, anaerobic

Row | Molecule | Km [1] | Km (purified protein) | kcat (purified protein)
1 | N#CSO [HOSCN, hypothiocyanous acid] | 81 µM | – | –
2 | B1 | – | 12700 µM | 33 s⁻¹
